Measurements published in paper PMC8039031.

Biological target: CREPT (RPRD1B) (UniProt Q9NQG5)
Test: co-IP
Conditions: reference: wild type; sites Y705

For STAT3 (from UniProt P40763) Y705F, the “binding against the reference” value was “lost”.
